As a reminder, the Km is the substrate concentration at which the rate is half of its maximum. As a reminder, the kcat is the maximal rate divided by the concentration of active sites.

Substitutions are numbered along the chain they refer to. In names and notes the source's numbering stands.

18 molecules from patent US12427188B2, “Pyocyanine demethylases and related phenazine degrading agents compositions, methods and systems for interfering with viability of bacteria” (priority 2020, dated 2025) can be followed below.

Data set [1] is described as follows: Continuous spectrophotometric PYO demethylation assay (specific activity and kinetics of PodA). Type of data set: biochemical. To be noted: for catalytic efficiency compared with PodA^WT: Michaelis-Menten kinetics, 3 μM protein. How it is done:
Specific activity and kinetics of PodA. To determine specific activity and kinetic parameters of PodA for PYO, a continuous spectrophotometric assay monitoring the absorbance of PYO (690 nm) was utilized. Briefly, assays were performed at 25° C. in 100 μL reaction volumes in 96-well plates and reactions were monitored at 690 nm over 10 min. Reaction mixtures contained Phosphate buffer (50 mM, pH 6.0), ethylene glycol (1%, v/v), protein (3 μM) and substrate (for specific activity, 100 μM, for kinetics, varying). Data were acquired using the SpectraMax® M3 Microplate Reader (Molecular Devices) using the Soft Max Pro software every 10 s over 10 min. Path lengths for each well were calculated using Soft Max Pro endpoint readings and slopes were corrected for path lengths of 1 cm.
Specific activity was calculated from the slope of the linear range of (ΔOD690 min^−1) using Beer's Law (A=εcl) with a path length of 1 cm and the molar extinction coefficient of PYO (4,130 M^−1 cm^−1). Equation was solved for c, giving specific activity in nmol min^−1 mg^−1 of PodA. For kinetic parameters, graphs of initial velocity (μM s^−1) versus substrate concentration (μM) were plotted using Prism v8 (GraphPad). The Michaelis-Menten kinetics model was used to determine Km and Vmax. The turnover number (kcat) was determined using the following equation: Vmax=kcat[E], where [E] was the concentration of PodA added. All spectrophotometric assays mentioned above were completed thrice, each in technical triplicate with a representative data set shown. Error bars represent standard deviation as calculated by Prism v8 (GraphPad). Standard deviation for kcat and Kcat KM^−1 was calculated using standard formulas for propagation of error.

Data set [2] is described as follows: Protein yield of PodA variants purified from inclusion bodies of overexpression culture. To be noted: purified from inclusion bodies, per L of E. coli overexpression culture. How it is done:
Protein overproduction and purification of soluble and inclusion body fractions. Plasmids coding for proteins of interest were transformed into E. coli BL21 […]. […]. Cultures were grown at 37° C. with shaking to an optical density of 0.4 (OD600 nm) and plasmid expression was induced with IPTG (50 μM) and shaken overnight at 16° C. Cells were harvested by centrifugation at 5,000×g for 10 min in a Beckman Coulter Avanti J-20 XOI refrigerated centrifuge using a JLA-8.1000 rotor at 4° C. Cell pellets were stored at −80° C. until used.
For purification of PodA from inclusion bodies, the pellets remaining following lysis and centrifugation at 40,000×g were resuspended in 20 mL of detergent buffer [50 mM HEPES (pH 7.5) and 1% Triton-X (v/v)] using a Bio-gen PRO200 cell homogenizer (PRO Scientific). Sample was spun for 15 min at 40,000×g at 4° C. in a Beckman Coulter Avanti centrifuge with a JA-25.50 rotor. Supernatant was discarded and the remaining cell pellet was resuspended in 5 mL of buffer [50 mM HEPES (pH 7.5), 500 mM NaCl] using a cell homogenizer, supplemented with lysozyme (200 μg mL^−1), and incubated for 10 min. Volume was increased to 20 mL with HEPES (50 mM, pH 7) and sample was spun for 40,000×g at 4° C. for 15 min. Supernatant was discarded and pellet was homogenized in 10 mL of denaturing buffer 50 mM HEPES (pH 7.5), 500 mM NaCl, and 8M urea) and incubating rocking overnight. The sample was spun at for 40,000×g at 25° C. for 30 min and supernatant was incubated with 1 mL HisPur Ni-NTA resin (Thermo Fisher Scientific) on a rocking platform for 10 min. Beads were allowed to settle without shaking, supernatant was discarded, and resin was pipetted into glass gravity columns. Resin was washed with 15 mL of denaturing buffer, followed by an elution with denaturing buffer supplemented with imidazole (500 mM). Fractions were analyzed by SDS-PAGE and those containing protein were combined into SnakeSkin 3.5 K MWCO dialysis tubing (Thermo Fisher Scientific). Urea was slowly dialyzed out in HEPES (50 mM, pH 7.5) and NaCl (500 mM) by lowing urea concentrations by 1 M increments. Each step was dialyzed at RT for 30 min. Protein was dialyzed in HEPES (50 mM, pH 7.5), NaCl (500 mM), and imidazole (20 mM) overnight at 4° C. The following day, protein was cleaved for 3 h at 25° C. with TEV protease (1:50 mg:mg ratio of TEV to PodA). The sample was applied to a HisPur gravity column and cleaved protein in the flow thru was confirmed by SDS-PAGE. Cleaved PodA protein was then dialyzed for storage for 3 h at 4° C. in HEPES (50 mM pH 7.5), NaCl (250 mM) and finally in HEPES (50 mM, pH 7.5), NaCl (100 mM), and glycerol (20%, v/v). Protein concentration was established on a NanoDrop™ using the extinction coefficient and MW of each protein. Protein was drop frozen in LN2 and stored at −80° C. until use.

Setting [3] is: pH 6, 1% ethylene glycol, PodA 3 μM, substrate PYO.

B1: PodA8: Designed PodA41-162 variant: A53N, I73R, A87V, T91V, A129V (protein)
chain: VTMTLDVKNDQVNKHDFGKPGMDVGDMDIFSDRLSVDGKQVGYDGGVCFFVNVTPDNPMTYCELTIHLDAGEIFARSLTPHTLAPFTMVITGGTGEYANSKGELTVSGVATPDEKYELKLTK
In the case of B1, the “catalytic efficiency compared with PodA^WT” value in data set [1] is recorded as “no change in catalytic efficiency”. Besides, the “PYO demethylation activity relative to wild type” value in data set [1] (PYO 50 μM, PodA variants 3 μM) is listed as “wild-type activity was maintained”. In data set [2], this molecule came in with a Yield of 2.1 mg/L^−1.

B2: PodA2: Designed PodA41-162 variant: I73T, A87V, T91V, M99V, A129V (protein)
chain: B1 chain with N13A, R33T, M59V
Turning to B2, the Yield in data set [2] amounted to 16.1 mg/L^−1.

B3: PodA9: Designed PodA41-162 variant: I73K, A87V, T91V, A129V, K141T (protein)
chain: B1 chain with N13A, R33K, K101T
In data set [2], B3 had a Yield of 1.28 mg/L^−1.

B4: PodA5: Designed PodA41-162 variant: I73L, A87I, M99V, A129V, K141T (protein)
chain: B1 chain with N13A, R33L, V47I, V51T, M59V, K101T
In data set [2], B4 registered a Yield of 9.9 mg/L^−1.

B5: PodA7: Designed PodA41-162 variant: I73L, A87I, T91V, M99T, A129V (protein)
chain: B1 chain with N13A, R33L, V47I, M59T
As for B5, the Yield in data set [2] turned out to be 4.1 mg/L^−1.

B6: PodA3: Designed PodA41-162 variant: I73K, A87V, T91V, M99V, A129V (protein)
chain: B1 chain with N13A, R33K, M59V
Regarding B6, in data set [2], the Yield is given as 9.45 mg/L^−1.

B7: PodA6: Designed PodA41-162 variant: I73R, A87V, T91V, M99V, A129T (protein)
chain: B1 chain with N13A, M59V, V89T
In data set [2], B7 displayed a Yield of 4.4 mg/L^−1.

B8: PodA^D72A: PodA active site variant D72A (protein)
chain: MTGKTKPAIIGGVAITALAAAGLGVWLFTDGRGGRSTTEPVTMTLDVKNDQVAKHDFGKPGMDVGDMDIFSAILSVDGKQVGYDGGACFFTNVTPDNPMTYCELTIHLDAGEIFARSLTPHTLAPFTMAITGGTGEYANSKGELTVSGVATPDEKYELKLTK
Consider B8, for which, in data set [1] (PodA 3 μM, PYO varying), the “Activity of active site variants compared to controls” value (“Activity … compared to controls” for short) is on record as “did not have measurable activity”.

B9: PodA^H121K: PodA active site variant H121K (protein)
chain: B8 chain with A72D, H121K
Regarding B9, the “Activity … compared to controls” value in data set [1] (PodA 3 μM, PYO varying) is given as “did not have measurable activity”.

B10: PodA^E154A: PodA active site variant E154A, inactive (protein)
chain: B8 chain with A72D, E154A
As to B10, the “Activity … compared to controls” value in data set [1] (PodA 3 μM, PYO varying) was “did not have measurable activity”.

B11: PodA^H121A: PodA active site variant H121A (protein)
chain: B8 chain with A72D, H121A
On to B11, for which the “Activity … compared to controls” value in data set [1] (PodA 3 μM, PYO varying) is “did not have measurable activity”.

B12: PodA^H121R: PodA active site variant H121R (protein)
chain: B8 chain with A72D, H121R
Regarding B12, in data set [1] (PodA 3 μM, PYO varying), the “Activity … compared to controls” value was “did not have measurable activity”.

B13: PodA^Y156F: PodA active site variant Y156F (protein)
chain: B8 chain with A72D, Y156F
Turning to B13, the “Activity … compared to controls” value in data set [1] (PodA 3 μM, PYO varying) is given as “did not have measurable activity”.

B14: PodA^D68A: PodA variant inhibiting product release, D68A (protein)
chain: B8 chain with D68A, A72D
Turning to B14, in data set [1] (PodA 3 μM, PYO varying), the Michaelis-Menten behaviour entry is “maintained similar Michaelis-Menten trends for concentrations of PYO under 100 μM, after which Vmax leveled off”.

B15: PodA^Y156A: PodA active site variant Y156A (protein)
chain: B8 chain with A72D, Y156A
Turning to B15, in data set [1] (PodA 3 μM, PYO varying), the “Activity … compared to controls” value is “did not have measurable activity”.

B16: WT PodA30-162: Truncated wild-type pyocyanin demethylase PodA, residues 30-162, SEQ ID NO: 2 (protein)
chain: MDGRGGRSTTEPVTMTLDVKNDQVAKHDFGKPGMDVGDMDIFSDILSVDGKQVGYDGGACFFTNVTPDNPMTYCELTIHLDAGEIFARSLTPHTLAPFTMAITGGTGEYANSKGELTVSGVATPDEKYELKLTKAENLYFQ
modifications: Sybthetic Polypeptide
As to B16, in data set [1] (buffers pH 5.5-10.0, PodA 3 μM, PYO 100 μM), the “pH of optimal activity” value stood at 6. For the same molecule, in data set [1] (cystic fibrosis sputum range, 66 mM Na+, 15 mM K+), the “Effect of salts (NaCl and KCl) on activity” value was “did not inhibit or enhance”. In addition, the “Effect of higher glycerol concentrations on the activity increase” value in data set [1] (glycerol 5 to 20%) was “reversed this activity increase”. For the same molecule, in data set [1] (setting [3]), the Km was determined as 372 µM, the catalytic efficiency is recorded as 4.73±0.24×10^2 M^−1 s^−1 and the kcat turned out to be 0.176 ± 0.003 s⁻¹. Further, the “Effect of slight increase in viscosity (ethylene glycol or glycerol 1% v/v) on activity” value in data set [1] (pH 6, PodA 3 μM, PYO 100 μM) is given as “enhanced”. For the same molecule, in data set [1] (protein from soluble fraction), the catalytic efficiency is given as 1.05±0.093×10^2 M^−1 s^−1. Also, the catalytic efficiency in data set [1] (protein purified from inclusion bodies, denatured and refolded) is listed as 1.14±0.25× 10^2 M^−1 s^−1.

B17: PodA1030-162: PodA10 of SEQ ID NO: 2: A24N, I44T, A58V, M70V, A100T (protein)
chain: B16 chain with A25N, I45T, A59V, M71V, A101T
modifications: Sybthetic Polypeptide
On to B17, for which the “catalytic efficiency compared with PodA^WT” value in data set [1] is given as “slight increase in efficiency”.

B18: PodA830-162: PodA8 of SEQ ID NO: 2: A24N, I44R, A58V, T62V, A100V (protein)
chain: B16 chain with A25N, I45R, A59V, T63V, A101V
modifications: Sybthetic Polypeptide
On to B18, for which the “catalytic efficiency compared with PodA^WT” value in data set [1] is recorded as “no change”.
